Laboratory results taken from PMC3064261 (Nature, 2011).
Square brackets hold non-standard residues; d marks the D form. Ends that are not written are not given here. pS = N[C@@H](COP(=O)(O)O)C(=O)O

Molecular target: GST-MDC1-BRCT
Test: SPR

B1: MMSET phosphopeptide containing pS102 (peptide)
chain: AKLRFE[pS]QEMKG
- Kd: 893 nM

B2: γH2AX peptide (peptide)
chain: KKATQA[pS]QEY
- Kd: 287 nM
